Article PMC12260524, “Identification of a VPS29 isoform with restricted association to Retriever and Retromer accessory proteins through autoinhibition” (Proceedings of the National Academy of Sciences of the …, 2025)

Biological target: GST-VPS29C (human, UniProt F8VXU5 1-214)
Assay: ITC; 300 μM peptide titrated into 10 μM GST-tagged VPS29C, 25 °C, 50 mM Tris-HCl pH 7.5, 200 mM NaCl, 2 mM β-mercaptoethanol; single-site model
Settings: both partners purified

Kd: > 100 µM
B1: VPS35L 16 to 38 (peptide)
peptide: EFASCRLEAVPLEFGDYHPLKPI
notes: also called VPS35L Pro-Leu motif containing peptide
